This is an account of results in patent publication US20230383273.

One data set has as its system T1, OMNI-65 (Faecalibacterium sp. An192).
T1 sequence: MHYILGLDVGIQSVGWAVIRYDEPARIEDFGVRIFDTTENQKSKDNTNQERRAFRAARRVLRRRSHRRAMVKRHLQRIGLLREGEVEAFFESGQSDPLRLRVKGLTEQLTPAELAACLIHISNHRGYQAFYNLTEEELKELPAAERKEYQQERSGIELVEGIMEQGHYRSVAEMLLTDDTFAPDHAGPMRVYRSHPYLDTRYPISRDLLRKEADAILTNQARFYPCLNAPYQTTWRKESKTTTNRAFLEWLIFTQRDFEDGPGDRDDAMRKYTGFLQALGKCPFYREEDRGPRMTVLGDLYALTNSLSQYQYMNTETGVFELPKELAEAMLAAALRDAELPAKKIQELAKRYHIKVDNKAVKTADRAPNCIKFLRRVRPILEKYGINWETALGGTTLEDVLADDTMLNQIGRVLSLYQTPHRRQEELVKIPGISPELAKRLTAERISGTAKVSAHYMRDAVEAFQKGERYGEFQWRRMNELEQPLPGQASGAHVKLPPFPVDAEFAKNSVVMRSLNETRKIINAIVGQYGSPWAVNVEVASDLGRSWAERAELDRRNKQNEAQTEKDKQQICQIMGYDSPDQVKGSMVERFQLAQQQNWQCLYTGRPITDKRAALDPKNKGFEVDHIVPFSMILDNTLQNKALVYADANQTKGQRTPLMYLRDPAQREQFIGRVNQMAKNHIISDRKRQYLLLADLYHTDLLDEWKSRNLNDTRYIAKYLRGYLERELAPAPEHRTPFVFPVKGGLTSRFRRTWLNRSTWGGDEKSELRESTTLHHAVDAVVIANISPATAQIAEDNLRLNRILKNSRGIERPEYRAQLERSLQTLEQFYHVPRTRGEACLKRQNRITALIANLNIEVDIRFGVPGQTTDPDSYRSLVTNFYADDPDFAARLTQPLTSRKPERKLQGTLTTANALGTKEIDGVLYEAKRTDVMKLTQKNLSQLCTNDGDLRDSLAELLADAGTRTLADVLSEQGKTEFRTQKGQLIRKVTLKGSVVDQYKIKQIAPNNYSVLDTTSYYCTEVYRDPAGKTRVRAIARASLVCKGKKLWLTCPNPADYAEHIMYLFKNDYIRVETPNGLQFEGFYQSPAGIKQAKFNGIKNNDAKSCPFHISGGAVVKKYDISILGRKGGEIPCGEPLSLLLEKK
The experiment in a line: cleavage_in_vitro. The conditions noted are these: PAM NNNVTA; TXTL.
Take “GGAAGAGCAGAGCCUUGGUCUCGUUUUGGUUCUCUGAGAAACAGAAGUUCUAAGAUAAGGCUUUACGCCGCAGGGUAUGGUGGUAUCCCAAAUAUUCCACCAUUUGAUUGUAUCUGAAAGCGUCCGGUUCGGGCGCUUUUU / GGAAGAGCAGAGCCTTGGTCTCNNNNNNNN / NNNNNNNNGAGACCAAGGCTCTGCTCTTCC”: the activity (1-depletion score) turned out to be 0.94. The sequence “GGAAGAGCAGAGCCUUGGUCUCGUUUUGGUUCUCUGAUGGGAAACAUCAGAAGUUCUAAGAUAAGGCUUUACGCCGCAGGGUAUGGUGGUAUCCCAAAUAUUCCACCAUUUGAUUGUAUCUGAAAGCGUCCGGUUCGGGCGCUUUUU / GGAAGAGCAGAGCCTTGGTCTCNNNNNNNN / NNNNNNNNGAGACCAAGGCTCTGCTCTTCC” showed an activity (1-depletion score) of 0.94.

“GGAAGAGCAGAGCCUUGGUCUCGUUUUGGUUCUUCUGGAAACAGAAGUUCUAAGAUAAGGCUUUACGCCGCAGGGUAUGGUGGUAUCCCAAAUAUUCCACCAUUUGAUUGUAUCUGAAAGCGUCCGGUUCGGGCGCUUUUU / GGAAGAGCAGAGCCTTGGTCTCNNNNNNNN / NNNNNNNNGAGACCAAGGCTCTGCTCTTCC” showed an activity (1-depletion score) of 0.93.

Another data set has as its system T2, OMNI-56 (Chryseobacterium sp. G0240).
T2 sequence: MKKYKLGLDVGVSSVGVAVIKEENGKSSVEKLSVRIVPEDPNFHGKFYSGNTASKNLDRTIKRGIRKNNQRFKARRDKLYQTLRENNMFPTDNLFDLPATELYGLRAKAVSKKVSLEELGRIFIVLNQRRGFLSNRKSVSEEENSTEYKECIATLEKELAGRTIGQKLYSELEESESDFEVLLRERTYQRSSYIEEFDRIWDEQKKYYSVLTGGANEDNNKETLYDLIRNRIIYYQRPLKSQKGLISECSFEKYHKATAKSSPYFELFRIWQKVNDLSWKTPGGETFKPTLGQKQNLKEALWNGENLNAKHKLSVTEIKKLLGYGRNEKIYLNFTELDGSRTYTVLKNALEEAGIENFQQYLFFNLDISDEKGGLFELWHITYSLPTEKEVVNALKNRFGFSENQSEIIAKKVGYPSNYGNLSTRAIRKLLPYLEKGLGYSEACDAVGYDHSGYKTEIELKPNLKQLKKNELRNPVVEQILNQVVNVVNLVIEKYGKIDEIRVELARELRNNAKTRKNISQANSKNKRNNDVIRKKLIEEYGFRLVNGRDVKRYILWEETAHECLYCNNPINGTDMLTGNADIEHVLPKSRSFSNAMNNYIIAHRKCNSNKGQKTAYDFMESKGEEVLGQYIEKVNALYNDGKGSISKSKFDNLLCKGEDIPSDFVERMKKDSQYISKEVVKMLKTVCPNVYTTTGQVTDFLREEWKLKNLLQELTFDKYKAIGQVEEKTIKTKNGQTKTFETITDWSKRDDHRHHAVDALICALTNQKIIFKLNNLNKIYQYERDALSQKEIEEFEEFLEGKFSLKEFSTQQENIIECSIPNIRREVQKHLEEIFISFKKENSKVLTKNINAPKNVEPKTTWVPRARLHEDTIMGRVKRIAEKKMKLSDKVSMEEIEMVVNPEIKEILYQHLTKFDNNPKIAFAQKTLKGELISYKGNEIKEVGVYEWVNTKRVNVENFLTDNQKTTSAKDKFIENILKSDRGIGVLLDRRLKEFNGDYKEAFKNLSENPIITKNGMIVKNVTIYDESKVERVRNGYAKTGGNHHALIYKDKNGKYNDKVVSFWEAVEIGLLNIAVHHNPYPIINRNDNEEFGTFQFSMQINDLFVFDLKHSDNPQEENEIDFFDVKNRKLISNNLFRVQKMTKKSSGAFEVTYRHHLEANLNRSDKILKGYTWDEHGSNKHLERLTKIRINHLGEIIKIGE
In words: cleavage_in_vitro. The conditions noted are these: PAM NNRNGG; TXTL.
Take “GGAAGAGCAGAGCCUUGGUCUCGUUGUGAAUUGCUUUCAAAAUUUAUUAUCUUCGAAAUUGGAUUAUAAAUUUUGAAAGCAAUUCACAAUAAGGAUUAUUCCGUUGUGAAAACAUUUAAGCCCCCUCGUCUUACCAUACGGGGGAUUUUUU / GGAAGAGCAGAGCCTTGGTCTCNNNNNNNN / NNNNNNNNGAGACCAAGGCTCTGCTCTTCC”: the activity (1-depletion score) was 0.53. Sequence “GGAAGAGCAGAGCCUUGGUCUCGUUGUGAAUUGCUUUCAUAAUUUAUUAUCUUCGAAAUUGGAUUAUAAAUUAUGAAAGCAAUUCACAAUAAGGAUUAUUCCGUUGUGAAAACAUUUAAGCCCCCUCGUCUUACCAUACGGGGGAUUUUUU / GGAAGAGCAGAGCCTTGGTCTCNNNNNNNN / NNNNNNNNGAGACCAAGGCTCTGCTCTTCC” yielded an activity (1-depletion score) of 0.69. For “GGAAGAGCAGAGCCUUGGUCUCGUUGUGAAUUGCUUUCGAAAGAAAGCAAUUCACAAUAAGGAUUAUUCCGUUGUGAAAACAUUUAAGCCCCCUCGUCUUACCAUACGGGGGAUUUUUU / GGAAGAGCAGAGCCTTGGTCTCNNNNNNNN / NNNNNNNNGAGACCAAGGCTCTGCTCTTCC”, the activity (1-depletion score) turned out to be 0.69.

For another data set, the system named is T3, OMNI-58 (Collinsella sp. AM13-34).
T3 sequence: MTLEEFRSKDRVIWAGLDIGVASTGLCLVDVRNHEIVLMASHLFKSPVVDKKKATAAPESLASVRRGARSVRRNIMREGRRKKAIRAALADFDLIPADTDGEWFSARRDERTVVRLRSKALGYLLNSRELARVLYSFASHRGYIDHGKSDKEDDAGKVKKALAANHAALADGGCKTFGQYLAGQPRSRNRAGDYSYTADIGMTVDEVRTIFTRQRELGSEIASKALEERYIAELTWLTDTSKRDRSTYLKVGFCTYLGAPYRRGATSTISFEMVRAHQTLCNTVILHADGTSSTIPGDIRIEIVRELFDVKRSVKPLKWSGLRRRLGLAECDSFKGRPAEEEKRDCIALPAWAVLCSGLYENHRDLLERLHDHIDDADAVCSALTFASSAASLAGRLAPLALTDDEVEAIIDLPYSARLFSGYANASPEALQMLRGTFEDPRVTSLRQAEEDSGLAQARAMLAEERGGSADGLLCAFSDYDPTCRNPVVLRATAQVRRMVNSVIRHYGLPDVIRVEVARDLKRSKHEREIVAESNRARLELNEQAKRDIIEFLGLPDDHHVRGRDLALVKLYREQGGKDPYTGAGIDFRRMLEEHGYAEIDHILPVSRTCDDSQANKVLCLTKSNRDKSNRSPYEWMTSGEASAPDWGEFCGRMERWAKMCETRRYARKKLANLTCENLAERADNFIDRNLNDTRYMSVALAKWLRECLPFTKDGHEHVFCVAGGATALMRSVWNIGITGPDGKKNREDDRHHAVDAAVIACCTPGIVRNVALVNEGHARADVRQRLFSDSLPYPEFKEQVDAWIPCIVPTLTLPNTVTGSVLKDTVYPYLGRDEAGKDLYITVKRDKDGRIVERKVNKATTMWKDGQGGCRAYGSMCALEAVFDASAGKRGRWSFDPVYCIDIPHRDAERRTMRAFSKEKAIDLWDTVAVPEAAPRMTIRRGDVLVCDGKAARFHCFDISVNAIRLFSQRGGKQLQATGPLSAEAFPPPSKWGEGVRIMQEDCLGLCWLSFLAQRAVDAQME
The experiment in a line: cleavage_in_vitro. The conditions noted are these: PAM NNNNCCA; TXTL.
“GGAAGAGCAGAGCCUUGGUCUCGCCCUAGCGCGGAAAAACGUUUGGGCAAGAGGGCCCGUUAAAGACGGGUCACUCGCGGAGUAUAUCCCGCAGGGUGCUAUUCGCACUCUGCGGGUGAUCUCCUAUUCCCUCCUUUUUU / GGAAGAGCAGAGCCTTGGTCTCNNNNNNNN / NNNNNNNNGAGACCAAGGCTCTGCTCTTCC” gave an activity (1-depletion score) of 0.86. “GGAAGAGCAGAGCCUUGGUCUCGCCCUAGCGCGGAAAAACGUUUGGGCAAGAGGGCCCGUUAAAGACGGGUCACUCGCGGAGUAUAUCCCGCAGGGUGCUUUUCGCACUCUGCGGGUGAUCUCCUUUUCCCUCCUUUUUU / GGAAGAGCAGAGCCTTGGTCTCNNNNNNNN / NNNNNNNNGAGACCAAGGCTCTGCTCTTCC” came in with an activity (1-depletion score) of 0.88. On the same count and under the same terms, under “GGAAGAGCAGAGCCUUGGUCUCGCCCUAGCGCGUUGGAAAAGUAACGUUUGGGCAAGAGGGCCCGUUAAAGACGGGUCACUCGCGGAGUAUAUCCCGCAGGGUGCUUUUCGCACUCUGCGGGUGAUCUCCUUUUCCCUCCUUUUUU / GGAAGAGCAGAGCCTTGGTCTCNNNNNNNN / NNNNNNNNGAGACCAAGGCTCTGCTCTTCC” stands 0.93.
